Patent US20240182563A1 (GENOME, published 2024)
Like-named read-outs stand apart in the source and are kept apart here.

Assays:
Assay in all cases: ELISA, plate coated with CNTN4-10xHis, anti-human Fc-HRP
human CNTN4-10xHis [1] = target: T1, human CNTN4-10xHis (human, UniProt Q8IWV2 19-1000)
T1 sequence: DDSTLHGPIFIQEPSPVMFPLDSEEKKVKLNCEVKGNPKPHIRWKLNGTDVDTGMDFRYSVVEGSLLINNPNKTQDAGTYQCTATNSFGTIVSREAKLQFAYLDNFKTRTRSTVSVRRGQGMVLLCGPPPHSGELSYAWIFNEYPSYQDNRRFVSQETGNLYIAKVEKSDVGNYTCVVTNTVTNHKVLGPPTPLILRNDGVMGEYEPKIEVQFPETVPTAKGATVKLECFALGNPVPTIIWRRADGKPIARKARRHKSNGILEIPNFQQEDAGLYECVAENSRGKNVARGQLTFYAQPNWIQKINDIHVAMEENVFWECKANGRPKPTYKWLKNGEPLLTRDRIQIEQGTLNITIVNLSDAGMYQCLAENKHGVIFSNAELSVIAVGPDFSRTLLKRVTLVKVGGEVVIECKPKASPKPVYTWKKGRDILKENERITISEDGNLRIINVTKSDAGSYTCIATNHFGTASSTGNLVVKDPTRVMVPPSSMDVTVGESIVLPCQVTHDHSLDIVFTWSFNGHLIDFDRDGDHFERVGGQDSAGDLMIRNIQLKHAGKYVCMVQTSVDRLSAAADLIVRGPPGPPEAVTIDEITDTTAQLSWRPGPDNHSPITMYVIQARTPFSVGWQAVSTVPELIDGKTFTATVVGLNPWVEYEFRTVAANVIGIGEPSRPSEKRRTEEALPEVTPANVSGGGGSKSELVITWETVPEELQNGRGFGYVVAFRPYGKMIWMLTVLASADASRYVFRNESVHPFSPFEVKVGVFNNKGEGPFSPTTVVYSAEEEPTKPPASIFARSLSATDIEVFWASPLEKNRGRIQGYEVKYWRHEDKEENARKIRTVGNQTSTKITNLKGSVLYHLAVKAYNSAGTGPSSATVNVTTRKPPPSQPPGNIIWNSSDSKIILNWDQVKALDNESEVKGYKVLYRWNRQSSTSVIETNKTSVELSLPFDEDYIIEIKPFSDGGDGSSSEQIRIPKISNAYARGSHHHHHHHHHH
Method: (§1) An ELISA test was performed on A-01 prepared in Example 2.1. An ELISA plate was coated with 200 ng of antigens (human CNTN4-10xHis or mouse CNTN4-10xHis). For antibody binding, A-01 was serially diluted from a maximum of 1 μM to 0.0001 nM, thereby binding to the antigen. Anti-human Fc-HRP was used as a secondary antibody for antibody detection. Color was developed using ABTS, which is a color developing reagent, and the absorbance at 405 nm was measured.

mouse CNTN4-10xHis = target: T2, mouse CNTN4-10xHis (mouse, UniProt Q69Z26 19-1000)
T2 sequence: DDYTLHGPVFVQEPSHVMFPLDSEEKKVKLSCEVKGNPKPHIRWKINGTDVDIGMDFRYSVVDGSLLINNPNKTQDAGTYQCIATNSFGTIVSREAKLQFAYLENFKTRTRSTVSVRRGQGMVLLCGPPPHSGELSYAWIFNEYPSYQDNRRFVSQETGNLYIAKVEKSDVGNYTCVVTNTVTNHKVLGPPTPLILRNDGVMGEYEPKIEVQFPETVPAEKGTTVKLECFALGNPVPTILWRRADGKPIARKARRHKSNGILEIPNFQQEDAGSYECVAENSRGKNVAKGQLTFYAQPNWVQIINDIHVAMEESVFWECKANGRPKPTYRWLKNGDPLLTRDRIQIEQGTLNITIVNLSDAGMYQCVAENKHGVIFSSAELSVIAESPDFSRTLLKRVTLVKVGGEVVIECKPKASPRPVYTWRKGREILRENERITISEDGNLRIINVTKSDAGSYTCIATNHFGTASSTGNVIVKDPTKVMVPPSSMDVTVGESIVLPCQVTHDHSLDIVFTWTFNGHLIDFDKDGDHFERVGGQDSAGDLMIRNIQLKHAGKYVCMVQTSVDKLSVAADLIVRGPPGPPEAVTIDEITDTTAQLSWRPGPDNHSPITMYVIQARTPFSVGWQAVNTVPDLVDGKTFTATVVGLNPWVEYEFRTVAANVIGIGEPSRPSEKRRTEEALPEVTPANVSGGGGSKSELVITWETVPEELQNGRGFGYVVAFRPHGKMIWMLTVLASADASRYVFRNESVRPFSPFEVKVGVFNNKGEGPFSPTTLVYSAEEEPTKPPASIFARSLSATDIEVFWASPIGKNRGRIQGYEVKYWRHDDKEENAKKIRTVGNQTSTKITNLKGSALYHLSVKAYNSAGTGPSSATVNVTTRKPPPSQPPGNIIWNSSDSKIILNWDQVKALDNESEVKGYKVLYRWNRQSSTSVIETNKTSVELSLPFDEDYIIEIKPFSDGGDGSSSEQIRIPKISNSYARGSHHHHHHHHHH
Method: as §1

human CNTN4-10xHis [2] = target: T1, human CNTN4-10xHis; remark: listed apart in the source

EC50 (human CNTN4-10xHis [1]): 11 pM
EC50 (mouse CNTN4-10xHis): 11 pM
EC50 (human CNTN4-10xHis [2]): 11 pM
B1: anti-CNTN4 129 chimeric IgG4-S228P (antibody, V domains shown)
VH: AVTLDESEGGLQTPGGALSLVCKASGFTFSSFNMFWVRQAPGKGLEYVAEISGGGGSTWYAPAVKGRATISRDNGQSTVRLQLNNLRAEDTGTYYCAKSADTWSYGAATIDAWGHGTEVIVSS
VL: ALTQPSSVSANLGETVKITCSGSSGSYGWYQQKSPGSAPVTLIYDNTNRPSDIPSRFSGSGSGSTGTLTITGVRAEDEAVYYCGGYDGSTDVFGAGTTLTVL
notes: chicken-human chimeric IgG4-S228P made from S129, kappa light chain constant region (Kappa select); also called A-01; LAHA
